Reference: publication PMC10397247

Experiments:
4H796-bA = target: T1, 4H796-bA; assay: two-hybrid library CCNG1;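 also: natural log of median RNA to DNA barcode read ratio; higher means stronger binding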
T1 chain: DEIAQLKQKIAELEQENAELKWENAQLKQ

4H932-bA = target: T2, 4H932-bA; assay: two-hybrid library CCNG1;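 also: natural log of median RNA to DNA barcode read ratio; higher means stronger binding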
T2 chain: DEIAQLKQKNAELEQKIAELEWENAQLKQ

4H730-bA = target: T3, 4H730-bA; assay: two-hybrid library CCNG1;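 also: natural log of median RNA to DNA barcode read ratio; higher means stronger binding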
T3 chain: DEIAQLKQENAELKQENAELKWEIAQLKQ

4H949-bA = target: T4, 4H949-bA; assay: two-hybrid library CCNG1;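 also: natural log of median RNA to DNA barcode read ratio; higher means stronger binding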
T4 chain: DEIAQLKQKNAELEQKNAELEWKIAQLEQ

4H797-bH = target: T5, 4H797-bH; assay: two-hybrid library CCNG1;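 also: natural log of median RNA to DNA barcode read ratio; higher means stronger binding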
T5 chain: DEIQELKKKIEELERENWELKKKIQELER

4H883-bH = target: T6, 4H883-bH; assay: two-hybrid library CCNG1;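 also: natural log of median RNA to DNA barcode read ratio; higher means stronger binding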
T6 chain: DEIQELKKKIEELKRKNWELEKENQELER

4H908-bH = target: T7, 4H908-bH; assay: two-hybrid library CCNG1
T7 chain: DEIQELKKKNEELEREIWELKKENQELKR

4H967-bH = target: T8, 4H967-bH; assay: two-hybrid library CCNG1
T8 chain: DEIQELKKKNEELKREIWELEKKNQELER

4H968-bH = target: T9, 4H968-bH; assay: two-hybrid library CCNG1
T9 chain: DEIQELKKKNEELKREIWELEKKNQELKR

4H780-bH = target: T10, 4H780-bH; assay: two-hybrid library CCNG1
T10 chain: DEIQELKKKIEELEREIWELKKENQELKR

4H953-bH = target: T11, 4H953-bH; assay: two-hybrid library CCNG1
T11 chain: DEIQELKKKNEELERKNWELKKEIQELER

4H918-bH = target: T12, 4H918-bH; assay: two-hybrid library CCNG1
T12 chain: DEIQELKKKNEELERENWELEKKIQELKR

4H855-bH = target: T13, 4H855-bH; assay: two-hybrid library CCNG1
T13 chain: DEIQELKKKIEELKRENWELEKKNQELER

4H754-bH = target: T14, 4H754-bH; assay: two-hybrid library CCNG1
T14 chain: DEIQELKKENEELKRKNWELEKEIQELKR

4H3865-AA = target: T15, 4H3865-AA; assay: two-hybrid library CCmax; details: mean of both orientations
T15 chain: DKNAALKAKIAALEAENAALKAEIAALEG

4H384-AA = target: T16, 4H384-AA; assay: two-hybrid library CCmax; details: mean of both orientations
T16 chain: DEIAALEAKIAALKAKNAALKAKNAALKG

4H982-AA = target: T17, 4H982-AA; assay: two-hybrid library CCmax; details: mean of both orientations
T17 chain: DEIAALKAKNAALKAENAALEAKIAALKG

4H697-AA = target: T18, 4H697-AA; assay: two-hybrid library CCmax; details: mean of both orientations
T18 chain: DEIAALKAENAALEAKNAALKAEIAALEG

4H3588-AA = target: T19, 4H3588-AA; assay: two-hybrid library CCmax; details: mean of both orientations
T19 chain: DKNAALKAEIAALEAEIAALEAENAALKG

4H3697-AA = target: T20, 4H3697-AA; assay: two-hybrid library CCmax; details: mean of both orientations
T20 chain: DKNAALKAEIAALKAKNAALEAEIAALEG

4H340-AA = target: T21, 4H340-AA; assay: two-hybrid library CCmax; details: mean of both orientations
T21 chain: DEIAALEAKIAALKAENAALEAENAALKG

4H3631-AA = target: T22, 4H3631-AA; assay: two-hybrid library CCmax; details: mean of both orientations
T22 chain: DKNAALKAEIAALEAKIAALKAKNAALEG

4H3413-AA = target: T23, 4H3413-AA; assay: two-hybrid library CCmax; details: mean of both orientations
T23 chain: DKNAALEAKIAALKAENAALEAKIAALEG

4H32-AA = target: T24, 4H32-AA; assay: two-hybrid library CCmax; details: mean of both orientations
T24 chain: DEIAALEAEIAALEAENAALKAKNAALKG

4H3162-AA = target: T25, 4H3162-AA; assay: two-hybrid library CCmax
T25 chain: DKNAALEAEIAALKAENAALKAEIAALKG

4H3606-AA = target: T26, 4H3606-AA; assay: two-hybrid library CCmax; details: mean of both orientations
T26 chain: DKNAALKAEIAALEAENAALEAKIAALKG

4H3378-AA = target: T27, 4H3378-AA; assay: two-hybrid library CCmax; details: mean of both orientations
T27 chain: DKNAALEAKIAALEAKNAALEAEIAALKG

4H3718-AA = target: T28, 4H3718-AA; assay: two-hybrid library CCmax; details: mean of both orientations
T28 chain: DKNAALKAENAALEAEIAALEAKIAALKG

APC8910-AA = target: T29, APC8910-AA; assay: two-hybrid library CCmax; details: mean of both orientations
T29 chain: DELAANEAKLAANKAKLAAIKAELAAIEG

APC7099-AA = target: T30, APC7099-AA; assay: two-hybrid library CCmax; details: mean of both orientations
T30 chain: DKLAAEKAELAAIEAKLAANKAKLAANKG

APC6108-AA = target: T31, APC6108-AA; assay: two-hybrid library CCmax
T31 chain: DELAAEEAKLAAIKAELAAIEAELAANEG

APC9319-AA = target: T32, APC9319-AA; assay: two-hybrid library CCmax; details: mean of both orientations
T32 chain: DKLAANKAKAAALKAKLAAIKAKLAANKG

APC9096-AA = target: T33, APC9096-AA; assay: two-hybrid library CCmax; details: mean of both orientations
T33 chain: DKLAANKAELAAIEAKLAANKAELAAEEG

APC8191-AA = target: T34, APC8191-AA; assay: two-hybrid library CCmax; details: mean of both orientations
T34 chain: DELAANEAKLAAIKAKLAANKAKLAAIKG

4H741-bA = target: T35, 4H741-bA; assay: two-hybrid library CCNG1
T35 chain: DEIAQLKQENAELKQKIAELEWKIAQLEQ

APC8516-AA = target: T36, APC8516-AA; assay: two-hybrid library CCmax; details: mean of both orientations
T36 chain: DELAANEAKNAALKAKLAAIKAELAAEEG

APC9182-AA = target: T37, APC9182-AA; assay: two-hybrid library CCmax; details: mean of both orientations
T37 chain: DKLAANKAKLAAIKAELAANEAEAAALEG

APC9291-AA = target: T38, APC9291-AA; assay: two-hybrid library CCmax; details: mean of both orientations
T38 chain: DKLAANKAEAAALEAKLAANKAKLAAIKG

APC8401-AA = target: T39, APC8401-AA; assay: two-hybrid library CCmax; details: mean of both orientations
T39 chain: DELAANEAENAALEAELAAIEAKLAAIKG

APC9806-AA = target: T40, APC9806-AA; assay: two-hybrid library CCmax; details: mean of both orientations
T40 chain: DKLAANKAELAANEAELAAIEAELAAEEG

APC542-AA = target: T41, APC542-AA; assay: two-hybrid library CCmax
T41 chain: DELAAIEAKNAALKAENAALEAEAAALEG

APC9141-AA = target: T42, APC9141-AA; assay: two-hybrid library CCmax; details: mean of both orientations
T42 chain: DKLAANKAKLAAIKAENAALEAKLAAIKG

APC6088-AA = target: T43, APC6088-AA; assay: two-hybrid library CCmax; details: mean of both orientations
T43 chain: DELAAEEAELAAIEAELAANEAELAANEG

APC5531-AA = target: T44, APC5531-AA; assay: two-hybrid library CCmax; details: mean of both orientations
T44 chain: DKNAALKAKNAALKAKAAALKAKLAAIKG

APC7524-AA = target: T45, APC7524-AA; assay: two-hybrid library CCmax; details: mean of both orientations
T45 chain: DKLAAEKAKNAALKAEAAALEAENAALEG

4H780-bA = target: T46, 4H780-bA; assay: two-hybrid library CCNG1
T46 chain: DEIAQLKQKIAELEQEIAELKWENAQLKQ

4H953-bA = target: T47, 4H953-bA; assay: two-hybrid library CCNG1
T47 chain: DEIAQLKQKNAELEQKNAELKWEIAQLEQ

4H968-bA = target: T48, 4H968-bA; assay: two-hybrid library CCNG1
T48 chain: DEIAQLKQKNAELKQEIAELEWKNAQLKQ

4H855-bA = target: T49, 4H855-bA; assay: two-hybrid library CCNG1
T49 chain: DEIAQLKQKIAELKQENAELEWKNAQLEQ

4H797-bA = target: T50, 4H797-bA; assay: two-hybrid library CCNG1
T50 chain: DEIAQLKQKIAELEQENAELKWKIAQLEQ

4H918-bA = target: T51, 4H918-bA; assay: two-hybrid library CCNG1
T51 chain: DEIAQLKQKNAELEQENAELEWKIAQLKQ

4H3073-AA = target: T52, 4H3073-AA; assay: two-hybrid library CCmax
T52 chain: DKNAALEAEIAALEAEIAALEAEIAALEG

4H_APH = target: T53, 4H_APH; assay: two-hybrid library CCmax; details: mean of both orientations
T53 chain: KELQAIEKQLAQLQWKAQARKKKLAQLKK

4H3438-AA = target: T54, 4H3438-AA; assay: two-hybrid library CCmax; details: mean of both orientations
T54 chain: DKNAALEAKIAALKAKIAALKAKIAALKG

4H347-AA = target: T55, 4H347-AA; assay: two-hybrid library CCmax; details: mean of both orientations
T55 chain: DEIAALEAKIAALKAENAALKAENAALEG

4H406-AA = target: T56, 4H406-AA; assay: two-hybrid library CCmax; details: mean of both orientations
T56 chain: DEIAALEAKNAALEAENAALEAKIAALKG

4H_GCN4 = assay: two-hybrid library CCmax; details: mean of both orientations
Chain of 4H_GCN4 (chain, as listed by the source): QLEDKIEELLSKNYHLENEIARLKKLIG

4H452-AA = target: T57, 4H452-AA; assay: two-hybrid library CCmax; details: mean of both orientations
T57 chain: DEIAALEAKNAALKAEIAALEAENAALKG

GCN2_T = assay: two-hybrid library CCmax
4H_BCR = target: T58, 4H_BCR; assay: two-hybrid library CCmax; details: mean of both orientations
T58 chain: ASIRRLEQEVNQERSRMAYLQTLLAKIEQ

4H56-AA = target: T59, 4H56-AA; assay: two-hybrid library CCmax; details: mean of both orientations
T59 chain: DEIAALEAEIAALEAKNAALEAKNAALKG

## DEIAQLKQENAELKQENAELKWEIAQLKQ [4H730-bA]
4H796-bA
  interaction score: -0.666
4H932-bA
  interaction score: -0.52
4H730-bA
  interaction score: 1.25
4H949-bA
  interaction score: -0.437

## DEIQELKKENEELKRKNWELEKEIQELKR [4H754-bH]
4H797-bH
  interaction score: -0.0415
4H883-bH
  interaction score: -0.29
4H908-bH
  interaction score: 0.329
4H967-bH
  interaction score: -0.713
4H968-bH
  interaction score: -0.182
4H780-bH
  interaction score: -0.00466
4H953-bH
  interaction score: 0.539
4H918-bH
  interaction score: 0.604
4H855-bH
  interaction score: -0.362
4H754-bH
  interaction score: 1.36

## DKNAALEAEIAALKAENAALKAEIAALKG [4H3162-AA]
4H3865-AA
  interaction score: -0.607
4H384-AA
  interaction score: -1.58
4H982-AA
  interaction score: -1.88
4H697-AA
  interaction score: -1.39
4H3588-AA
  interaction score: -1.53
4H3697-AA
  interaction score: -1.2
4H340-AA
  interaction score: -1.4
4H3631-AA
  interaction score: -1.62
4H3413-AA
  interaction score: -1.04
4H32-AA
  interaction score: -1.53
4H3162-AA
  interaction score: 0.942
4H3606-AA
  interaction score: -0.0579
4H3378-AA
  interaction score: -1.59
4H3718-AA
  interaction score: -1.43

## DEIQELKKKIEELEREIWELKKENQELKR [4H780-bH]
4H797-bH
  interaction score: -0.654
4H968-bH
  interaction score: -0.28
4H780-bH
  interaction score: 1.6
4H953-bH
  interaction score: -0.153
4H918-bH
  interaction score: 0.556
4H855-bH
  interaction score: 0.0924

## DELAAEEAKLAAIKAELAAIEAELAANEG [APC6108-AA]
APC8910-AA
  interaction score: -2.2
APC7099-AA
  interaction score: -1.52
APC6108-AA
  interaction score: -1.61
APC9319-AA
  interaction score: -1.1
APC9096-AA
  interaction score: -1.73
APC8191-AA
  interaction score: -1.6

## DEIAQLKQENAELKQKIAELEWKIAQLEQ [4H741-bA]
4H741-bA
  interaction score: 0.341

## DELAAIEAKNAALKAENAALEAEAAALEG [APC542-AA]
APC8516-AA
  interaction score: -1.5
APC9182-AA
  interaction score: -1.84
APC9291-AA
  interaction score: -1.54
APC8401-AA
  interaction score: -1.89
APC9806-AA
  interaction score: -1.91
APC542-AA
  interaction score: -1.57
APC9141-AA
  interaction score: -1.64
APC6088-AA
  interaction score: -2.13
APC5531-AA
  interaction score: -1.88
APC7524-AA
  interaction score: -2

## DEIAQLKQKIAELEQEIAELKWENAQLKQ [4H780-bA]
4H780-bA
  interaction score: 1.22
4H953-bA
  interaction score: -0.243
4H968-bA
  interaction score: -1.3
4H855-bA
  interaction score: -0.574
4H797-bA
  interaction score: -0.749
4H918-bA
  interaction score: -0.303

## DKNAALEAEIAALEAEIAALEAEIAALEG [4H3073-AA]
4H3073-AA
  interaction score: -0.701
4H_APH
  interaction score: 0.197
4H3438-AA
  interaction score: 1.51
4H347-AA
  interaction score: -1.33
4H406-AA
  interaction score: -1.6
4H_GCN4
  interaction score: -0.626
4H452-AA
  interaction score: -1.22
GCN2_T
  interaction score: -1.05
4H_BCR
  interaction score: -1.37
4H56-AA
  interaction score: -1.28
